Data published in patent US20200231674A1 (published 2020).

Target: T1, human CD8 alpha (on transfected HEK293T cells) (human, UniProt P01732 22-235)
T1 construct: whole, on cells
Assay: FACS on HEK293-T cells transfected with human CD8a (Example 2, FIG. 4)
Description: The binding characteristics of various VHHs (as described in Example 1) were tested by flow cytometry. HEK293-T cells were transfected with a human CD8a expression plasmid and stained with the His-tagged VHHs at […], followed by staining with an anti-His Fitc conjugated antibody. Binding was measured by detecting cellular fluorescence via flow cytometry.

T1 sequence (P01732 22-235): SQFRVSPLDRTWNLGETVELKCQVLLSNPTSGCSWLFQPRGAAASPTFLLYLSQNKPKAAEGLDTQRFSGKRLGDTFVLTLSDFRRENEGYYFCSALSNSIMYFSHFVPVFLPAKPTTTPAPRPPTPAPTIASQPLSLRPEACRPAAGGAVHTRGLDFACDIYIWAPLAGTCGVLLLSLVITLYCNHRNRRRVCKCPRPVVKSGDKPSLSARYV

B1: 2CDA 74 (VHH)
VHH: QVQLQESGGGLVQAGGSLRLSCAVSGFTFDNYAIGWFRQAPGKEREGVSCISRSDGSTYYADSVRGRFTISSDNAKNTVYLQMNSLKPEDTAVYYCAAETSADSGEFRFGWVLKPSLYDYWGQGTQVTVSS
notes: entry carries AAA-HA-His6 tail (pMECS format); free cysteine in CDR2 at position 50
binding result: binds
